Legend:
[1] = molecular target: T1, monovalent hVISTA-ECD (amino acids 32-193 of SEQ ID NO: 1 with a 7xHis tail) (human, UniProt Q9H7M9 33-193); experiment: SPR, mAb captured on Protein A, hVISTA-ECD analyte, 37 C, pH 6.0
T1 construct: also called huVISTA-His; human VISTA-ECD
Experimental: (§1) Binding kinetics were measured using a Biacore® T100 instrument (GE Healthcare). Protein A (ThermoFisher Scientific catalog #21181) was diluted to 20 μg/ml in 10 mM sodium acetate pH 4.5 and immobilized onto flow cells of a CM5 biosensor following the manufacturer's amine coupling protocol (GE Healthcare), targeting 2,000 RU immobilization density of Protein A per flow cell. The assay was conducted at 37° C. using PBST (137 mM sodium chloride, 2.7 mM potassium chloride, 10 mM phosphate buffer, 0.05% Tween 20) running buffer at pH 7.4, 6.7 and 6.0. Antibodies were diluted to 25 nM in PBST pH 7.4, and were captured across active biosensor flow cells at 5 ul/min for 40 seconds. A concentration series of 100-10 nM monovalent hVISTA-ECD (SEQ ID NO: 325) was prepared in pH 7.4, 6.7 and 6.0 running buffers, and was injected over the captured antibodies at 40 ul/min to measure association and dissociation. Two 15 second injections of 10 mM glycine pH 1.5 were used to regenerate the Protein A capture surface between assay cycles. Rate constants ka (kon) and kd (koff) were derived from reference flow cell and 0 nM blank-subtracted sensorgrams, and were fit to a 1:1 binding model in Biacore® T200 Evaluation Software v.2.0.
(§2) The affinity constant, KD was calculated as the ratio of rate constants koff/kₒₙ for each VISTA antibody. The % Rmax was calculated to compare how pH affects an antibody's binding capacity for VISTA, and represents the measured maximal VISTA binding response relative to the expected maximal VISTA binding response. The % Rmax is defined as the ratio of the reference-subtracted ‘binding’ report point response at the end of the 100 nM VISTA injection for each antibody (Rmax) relative to the expected VISTA binding response (Rexp). Rexp is calculated as Rexp=[(VISTA-ECD molecular weight/mAb molecular weight)×(mAb ‘capture’ report point response (RUs)]×2 binding sites per mAb.

[2] = molecular target: T1, monovalent hVISTA-ECD (amino acids …); experiment: SPR, mAb captured on Protein A, hVISTA-ECD analyte, 37 C, pH 6.7
Experimental: as §1, §2

[3] = molecular target: T1, monovalent hVISTA-ECD (amino acids …); experiment: SPR, mAb captured on Protein A, hVISTA-ECD analyte, 37 C, pH 7.4
Experimental: as §1, §2

[4] = molecular target: T1, monovalent hVISTA-ECD (amino acids …); experiment: SPR, mAb on Protein A, 37C, pH 6.0
Experimental: (§3) Binding of several preparations of each of the '029 progeny clones and of the parent '029 antibodies, formatted as IgG1.3 antibodies, to human VISTA at pH 6.0 and 7.4 was measured by Surface plasmon resonance (SPR). SPR analysis was performed to measure koff and KD binding affinity measurements for VISTA Abs at acidic and neutral pHs using a Biacore® T100 instrument (GE Healthcare). Protein A (ThermoFisher Scientific catalog #21181) was diluted to 20 μg/ml in 10 mM sodium acetate pH 4.5 and immobilized onto flow cells of a CM5 biosensor following the manufacturer's amine coupling protocol (GE Healthcare), targeting 2,000 RU immobilization density of Protein A per flow cell. SPR experiments were conducted at 37° C. using PBST (137 mM sodium chloride, 2.7 mM potassium chloride, 10 mM phosphate buffer, 0.05% Tween® 20) running buffer at pH 7.4 and 6.0. Antibodies were diluted to 25 nM in PBST pH 7.4, and were captured across active biosensor flow cells at 5 ul/min for 60 seconds. A concentration series of 50-5 nM monovalent hVISTA-ECD (SEQ ID NO: 325) was prepared in pH 7.4 and 6.0 running buffers, and was injected over the captured antibodies at 40 ul/min to measure association and dissociation. Two 15 second injections of 10 mM glycine pH 1.5 were used to regenerate the Protein A capture surface between assay cycles. Rate constants ka (kₒₙ) and kd (koff) were derived from reference flow cell and 0 nM blank-subtracted sensorgrams, and were fit to a 1:1 binding model in Biacore® T200 Evaluation Software v.2.0. The affinity constant, KD was calculated as the ratio of rate constants koff/kₒₙ for each VISTA antibody.

[5] = molecular target: T1, monovalent hVISTA-ECD (amino acids …); experiment: SPR, mAb on Protein A, 37C, pH 7.4
Experimental: as §3

[6] = molecular target: T1, monovalent hVISTA-ECD (amino acids …); experiment: SPR, mAb captured on Protein A, hVISTA-ECD analyte, 37 C, pH 6.0; remark: listed apart in the source
Experimental: as §1, §2

T1 sequence (Q9H7M9 other isoform, or with tags, fused parts or gaps limits assumed): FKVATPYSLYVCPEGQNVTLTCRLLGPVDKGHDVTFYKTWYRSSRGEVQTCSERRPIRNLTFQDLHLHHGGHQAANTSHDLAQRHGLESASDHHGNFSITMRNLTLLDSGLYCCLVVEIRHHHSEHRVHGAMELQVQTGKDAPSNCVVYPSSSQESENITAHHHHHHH

B1: P1-068761_E30D_E32Y (antibody, human IgG1, kappa, V domains shown)
VH: EVQLVESGGGLVQPGKSLRLSCAASGFTLDDYAMHWVRQAPGKGLEWVSGINWNSEEIGYADSVKGRFTISRDNAKNSLYLQMNSLRTEDTALYYCAKVPGYSHGWIDAEDVWGQGTMVTVSS
VL: not shown
notes: also called P1-070876
koff [1]: 0.00071 s⁻¹
koff [2]: 0.00099 s⁻¹
koff [3]: 0.0035 s⁻¹

B2: P1-068761_E32Y_H100G (antibody, human IgG1, kappa, V domains shown)
VH: EVQLVESGGGLVQPGKSLRLSCAASGFTLEDYAMHWVRQAPGKGLEWVSGINWNSEEIGYADSVKGRFTISRDNAKNSLYLQMNSLRTEDTALYYCAKVPGYSGGWIDAEDVWGQGTMVTVSS
VL: not shown
notes: also called P1-070886
koff [1]: 0.00092 s⁻¹
koff [2]: 0.0013 s⁻¹
koff [3]: 0.0055 s⁻¹

B3: P1-068761_E32Y_E100fF (antibody, human IgG1, kappa, V domains shown)
VH: EVQLVESGGGLVQPGKSLRLSCAASGFTLEDYAMHWVRQAPGKGLEWVSGINWNSEEIGYADSVKGRFTISRDNAKNSLYLQMNSLRTEDTALYYCAKVPGYSHGWIDAFDVWGQGTMVTVSS
VL: not shown
notes: also called P1-070888
koff [1]: 0.0011 s⁻¹
koff [2]: 0.00095 s⁻¹
koff [3]: 0.0019 s⁻¹

B4: P1-071761 (P1-061029_HC_T84A, FW revertant) (antibody, V domains shown)
VH: EVQLVESGGGLVQPGKSLRLSCAASGFTLDDYAMHWVRQAPGKGLEWVSGINWNSANIGYADSVKGRFTISRDNAKNSLYLQMNSLRAEDTALYYCAKVPGYSGGWIDAFDVWGQGTMVTVSS
VL: not shown
notes: VH/VL only
Kd [4]: 6.9 nM
koff [4]: 0.006 s⁻¹
kon [4]: 870000 M⁻¹ s⁻¹
Kd [5]: 40 nM
koff [5]: 0.006 s⁻¹
kon [5]: 150000 M⁻¹ s⁻¹

B5: P1-068761_E100fF (antibody, human IgG1, kappa, V domains shown)
VH: EVQLVESGGGLVQPGKSLRLSCAASGFTLEDEAMHWVRQAPGKGLEWVSGINWNSEEIGYADSVKGRFTISRDNAKNSLYLQMNSLRTEDTALYYCAKVPGYSHGWIDAFDVWGQGTMVTVSS
VL: not shown
notes: also called P1-070874
koff [1]: 0.00013 s⁻¹
koff [2]: 0.00022 s⁻¹
koff [3]: 0.0013 s⁻¹

B6: P1-068761_E56N_E100fF (antibody, human IgG1, kappa, V domains shown)
VH: EVQLVESGGGLVQPGKSLRLSCAASGFTLEDEAMHWVRQAPGKGLEWVSGINWNSENIGYADSVKGRFTISRDNAKNSLYLQMNSLRTEDTALYYCAKVPGYSHGWIDAFDVWGQGTMVTVSS
VL: not shown
notes: also called P1-070902
koff [1]: 0.00038 s⁻¹
koff [2]: 0.00061 s⁻¹
koff [3]: 0.003 s⁻¹

B7: P1-068767_E30D_D52N (antibody, human IgG1, kappa, V domains shown)
VH: EVQLVESGGGLVQPGKSLRLSCAASGFTLDDYAMHWVRQAPGKGLEWVSGINWNSENIGYADSVKGRFTISRDNAKNSLYLQMNSLRTEDTALYYCAKVPGYSGGWIDAEDDWGQGTMVTVSS
VL: not shown
notes: also called P1-070914
koff [6]: 0.0023 s⁻¹

B8: P1-068767_D52N_E100fF (antibody, human IgG1, kappa, V domains shown)
VH: EVQLVESGGGLVQPGKSLRLSCAASGFTLEDYAMHWVRQAPGKGLEWVSGINWNSENIGYADSVKGRFTISRDNAKNSLYLQMNSLRTEDTALYYCAKVPGYSGGWIDAFDDWGQGTMVTVSS
VL: not shown
notes: also called P1-070928
koff [6]: 0.066 s⁻¹

B9: P1-068761_E30D_E100fF (antibody, human IgG1, kappa, V domains shown)
VH: EVQLVESGGGLVQPGKSLRLSCAASGFTLDDEAMHWVRQAPGKGLEWVSGINWNSEEIGYADSVKGRFTISRDNAKNSLYLQMNSLRTEDTALYYCAKVPGYSHGWIDAFDVWGQGTMVTVSS
VL: not shown
notes: also called P1-070896
koff [1]: 0.00033 s⁻¹
koff [2]: 0.00057 s⁻¹
koff [3]: 0.0035 s⁻¹

B10: P1-068761_E55A_E100fF (antibody, human IgG1, kappa, V domains shown)
VH: EVQLVESGGGLVQPGKSLRLSCAASGFTLEDEAMHWVRQAPGKGLEWVSGINWNSAEIGYADSVKGRFTISRDNAKNSLYLQMNSLRTEDTALYYCAKVPGYSHGWIDAFDVWGQGTMVTVSS
VL: not shown
notes: also called P1-070898
koff [1]: 0.00018 s⁻¹
koff [2]: 0.00028 s⁻¹
koff [3]: 0.0017 s⁻¹

B11: P1-068761_E32Y (antibody, human IgG1, kappa, V domains shown)
VH: EVQLVESGGGLVQPGKSLRLSCAASGFTLEDYAMHWVRQAPGKGLEWVSGINWNSEEIGYADSVKGRFTISRDNAKNSLYLQMNSLRTEDTALYYCAKVPGYSHGWIDAEDVWGQGTMVTVSS
VL: not shown
notes: also called P1-070866
koff [1]: 0.00041 s⁻¹
koff [2]: 0.00064 s⁻¹
koff [3]: 0.0025 s⁻¹

B12: P1-068761_E32Y_E55A (antibody, human IgG1, kappa, V domains shown)
VH: EVQLVESGGGLVQPGKSLRLSCAASGFTLEDYAMHWVRQAPGKGLEWVSGINWNSAEIGYADSVKGRFTISRDNAKNSLYLQMNSLRTEDTALYYCAKVPGYSHGWIDAEDVWGQGTMVTVSS
VL: not shown
notes: also called P1-070882
koff [1]: 0.00057 s⁻¹
koff [2]: 0.0006 s⁻¹
koff [3]: 0.0027 s⁻¹

B13: P1-068767_E55A_E100fF (antibody, human IgG1, kappa, V domains shown)
VH: EVQLVESGGGLVQPGKSLRLSCAASGFTLEDYAMHWVRQAPGKGLEWVSGIDWNSANIGYADSVKGRFTISRDNAKNSLYLQMNSLRTEDTALYYCAKVPGYSGGWIDAFDDWGQGTMVTVSS
VL: not shown
notes: also called P1-070918
koff [6]: 0.013 s⁻¹

B14: P1-068761_H100G_E100fF (antibody, human IgG1, kappa, V domains shown)
VH: EVQLVESGGGLVQPGKSLRLSCAASGFTLEDEAMHWVRQAPGKGLEWVSGINWNSEEIGYADSVKGRFTISRDNAKNSLYLQMNSLRTEDTALYYCAKVPGYSGGWIDAFDVWGQGTMVTVSS
VL: not shown
notes: also called P1-070880
koff [1]: 0.00021 s⁻¹
koff [2]: 0.0004 s⁻¹
koff [3]: 0.0023 s⁻¹

B15: P1-071757 (P1-061029_HC_K16R_T84A, FW revertant) (antibody, V domains shown)
VH: EVQLVESGGGLVQPGRSLRLSCAASGFTLDDYAMHWVRQAPGKGLEWVSGINWNSANIGYADSVKGRFTISRDNAKNSLYLQMNSLRAEDTALYYCAKVPGYSGGWIDAFDVWGQGTMVTVSS
VL: not shown
notes: VH/VL only
Kd [4]: 7.3 nM
koff [4]: 0.0059 s⁻¹
kon [4]: 810000 M⁻¹ s⁻¹
Kd [5]: 45 nM
koff [5]: 0.0059 s⁻¹
kon [5]: 130000 M⁻¹ s⁻¹

B16: P1-068767_E30D (antibody, human IgG1, kappa, V domains shown)
VH: EVQLVESGGGLVQPGKSLRLSCAASGFTLDDYAMHWVRQAPGKGLEWVSGIDWNSENIGYADSVKGRFTISRDNAKNSLYLQMNSLRTEDTALYYCAKVPGYSGGWIDAEDDWGQGTMVTVSS
VL: not shown
notes: also called P1-070904
koff [6]: 0.0032 s⁻¹

B17: P1-068767_E30D_E55A (antibody, human IgG1, kappa, V domains shown)
VH: EVQLVESGGGLVQPGKSLRLSCAASGFTLDDYAMHWVRQAPGKGLEWVSGIDWNSANIGYADSVKGRFTISRDNAKNSLYLQMNSLRTEDTALYYCAKVPGYSGGWIDAEDDWGQGTMVTVSS
VL: not shown
notes: also called P1-070922
koff [6]: 0.0035 s⁻¹

B18: P1-068761_E32Y_E56N (antibody, human IgG1, kappa, V domains shown)
VH: EVQLVESGGGLVQPGKSLRLSCAASGFTLEDYAMHWVRQAPGKGLEWVSGINWNSENIGYADSVKGRFTISRDNAKNSLYLQMNSLRTEDTALYYCAKVPGYSHGWIDAEDVWGQGTMVTVSS
VL: not shown
notes: also called P1-070884
koff [1]: 0.0007 s⁻¹
koff [2]: 0.00083 s⁻¹
koff [3]: 0.0032 s⁻¹

B19: P1-071759 (P1-061029_HC_K16R, FW revertant) (antibody, V domains shown)
VH: EVQLVESGGGLVQPGRSLRLSCAASGFTLDDYAMHWVRQAPGKGLEWVSGINWNSANIGYADSVKGRFTISRDNAKNSLYLQMNSLRTEDTALYYCAKVPGYSGGWIDAFDVWGQGTMVTVSS
VL: not shown
notes: VH/VL only
Kd [4]: 7.4 nM
koff [4]: 0.0059 s⁻¹
kon [4]: 800000 M⁻¹ s⁻¹
Kd [5]: 46 nM
koff [5]: 0.006 s⁻¹
kon [5]: 130000 M⁻¹ s⁻¹
